Measurements reported in patent publication US20230094162A1 (MacroGenics, published 2023).
Changes are numbered by the printed parent chain. Numbers in names are those of the source. Read-outs that look alike come from different tables or passages of the source. Blank lines part the entries; values can stand above or below the binder they belong to.

Assays:
[1] = biological target: T1, PD-L1 expressed on the cell surface (CHO/PD-L1 cells) (UniProt Q9NZQ7 19-290); test: cell-based or functional assay
[2] = biological target: T1, PD-L1 expressed on the cell surface …; test: cell-based or functional assay; remark: listed apart in the source
[3] = biological target: T2, CD137 expressed on the cell surface (CHO/CD137 cells) (UniProt Q07011 24-255, limits assumed); test: flow cytometry (FACS) on CHO cells expressing CD137, MFI
T2 construct: whole, on cells; also called cell surface CD137; Jurkat-NF-κB-Luc reporter cells overexpressing CD137
Procedure: FACS analysis to evaluate the test articles for binding to cell surface CD137 was performed essentially as follows: 100 μL of CHO cells expressing CD137 (CHO/CD137) (1.0×10⁵ to 1×10⁶ cells/well) and 100 μL of serially diluted test article or control was added to each well of microtiter assay plate(s), mixed and incubated at RT for about 30 min. The cells were washed with FACS Buffer and secondary antibody (goat anti-human-APC, PE, or FITC) was then added to each well (1:1000), after which, the components were mixed and the wells were incubated at RT for about 30 min. Cells were washed and resuspended in 250 μL FACS Buffer and analyzed by flow cytometry (BD LSR Fortessa or FACSCanto II) for cell events collection. Data analysis were performed via FloJo v10.

[4] = biological target: T1, PD-L1 expressed on the cell surface …; test: flow cytometry (FACS) on CHO cells expressing PD-L1, MFI
Procedure: (§1) FACS analysis to evaluate the test articles for binding to cell surface PD-L1 was performed essentially as follows: 100 μL of CHO cells expressing PD-L1 (CHO/PD-L1) (1.0×10⁵ to 1.0×10⁶ cells/well) and 100 μL of serially diluted test article was added to each well of microtiter assay plate(s), mixed and incubated at RT for about 30 min. The cells were washed with FACS Buffer and secondary antibody (goat anti-human-FITC, PE, or APC) was then added to each well, after which, the components were mixed and the wells were incubated at RT for about 30 min. Cells were washed and resuspended in 250 μL FACS Buffer and analyzed by flow cytometry (BD LSR Fortessa or FACSCanto II) for cell events collection. Data analysis were performed via FloJo v10.
Test articles were used at 10 μg/mL and five-fold serial dilutions for the FACS analysis and at 50 μg/mL and five-fold serial dilutions for the PD-L1 reporter assay.

[5] = biological target: T1, PD-L1 expressed on the cell surface …; test: as above; remark: listed apart in the source
Procedure: as §1

[6] = biological target: T2, CD137 expressed on the cell surface …; test: flow cytometry (FACS) on CHO cells expressing CD137, MFI; remark: listed apart in the source
[7] = biological target: T1, PD-L1 expressed on the cell surface …; test: cell-based or functional assay; remark: listed apart in the source
[8] = biological target: T1, PD-L1 expressed on the cell surface …; test: cell-based or functional assay; remark: listed apart in the source
[9] = biological target: T1, PD-L1 expressed on the cell surface …; test: flow cytometry (FACS) on JIMT-1 cells (PD-L1 positive), MFI
[10] = biological target: T3, soluble PD-L1 fused to a His tag (shPD-L1) (UniProt Q9NZQ7 19-238, limits assumed); test: ELISA on plate-coated shPD-L1
T3 construct: the species of shPD-L1 is not written out; also called shPD-L1-his; not shown: His tag
Procedure: For the hybridoma supernatants anti-CD137 antibody was utilized at 1.0 μg/mL and six three-fold serial dilutions. The amount of test article binding to the immobilized CD137 (human or cynomolgus monkey) was assessed using a goat anti-mouse IgG-HRP secondary antibody. All samples were analyzed on a plate reader (Victor 2 Wallac, Perkin Elmer) and EC50 values were calculated from dose-response curves by nonlinear regression analysis.
The binding of antibodies comprising these substitutions were evaluated for binding to a soluble PD-L1- fused to a His tag (shPD-L1) using an ELISA assay essentially as described above for CD137 binding except the plates were coated with shPD-L1 at 0.5 μg/mL and a goat anti-human IgG-HRP secondary antibody was used.

T1 sequence (Q9NZQ7 19-290): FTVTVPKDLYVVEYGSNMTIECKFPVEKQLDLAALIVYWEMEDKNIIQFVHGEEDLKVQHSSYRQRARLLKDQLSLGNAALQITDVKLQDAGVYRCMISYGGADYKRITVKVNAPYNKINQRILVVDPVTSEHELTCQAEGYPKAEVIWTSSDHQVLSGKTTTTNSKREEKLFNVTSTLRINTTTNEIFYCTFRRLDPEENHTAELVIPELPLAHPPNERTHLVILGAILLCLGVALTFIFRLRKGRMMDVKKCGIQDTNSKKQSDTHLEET
T3 sequence (Q9NZQ7 19-238 limits assumed): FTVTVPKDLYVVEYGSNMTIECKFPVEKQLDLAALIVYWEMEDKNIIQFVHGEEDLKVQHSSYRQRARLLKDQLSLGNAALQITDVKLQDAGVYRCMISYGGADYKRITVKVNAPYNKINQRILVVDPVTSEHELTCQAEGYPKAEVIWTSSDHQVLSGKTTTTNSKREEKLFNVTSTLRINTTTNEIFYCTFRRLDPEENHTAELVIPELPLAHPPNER
T2 sequence (Q07011 24-255 limits assumed): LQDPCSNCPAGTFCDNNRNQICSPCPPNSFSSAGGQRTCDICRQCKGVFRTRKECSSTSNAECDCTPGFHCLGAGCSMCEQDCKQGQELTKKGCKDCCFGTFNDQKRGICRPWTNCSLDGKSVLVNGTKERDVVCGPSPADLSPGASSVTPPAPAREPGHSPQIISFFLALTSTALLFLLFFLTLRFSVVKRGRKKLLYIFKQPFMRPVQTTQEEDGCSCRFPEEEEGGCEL

- EC50 (read off the curve) [1]: ~0.08 µg/mL
- EC50 (read off the curve) [2]: ~0.2 µg/mL
- EC50 (read off the curve) [3]: ~0.06 µg/mL
- EC50 (read off the curve) [4]: ~0.04 µg/mL
- EC50 (read off the curve) [5]: ~0.02 µg/mL
B1: DART-A (bispecific antibody, IgG1)
chain 1: DIQMTQSPSSLSASVGDRVTITCKASQDVNTAVAWYQQKPGKAPKLLIYWASTRHTGVPSRFSGSGSGTDFTLTISSLQPEDFATYYCQQHYNTPLTFGQGTKVEIKGGGSGGGGQVQLQESGPGLVKPSETLSLTCTVSGGSISSYYWSWIRQPPGKGLEWIGRIYTSGSTNYNPSLKSRVTMSVDTSKNQFSLKLSSVTAADTAVYYCARDGWYDEDYNYYGMDVWGQGTTVTVSSGGCGGGEVAACEKEVAALEKEVAALEKEVAALEKLEPKSADKTHTCPPCPAPEAAGGPSVFLFPPKPKDTLYITREPEVTCVVVDVSHEDPEVKFNWYVDGVEVHNAKTKPREEQYNSTYRVVSVLTVLHQDWLNGKEYKCKVSNKALPAPIEKTISKAKGQPREPQVYTLPPSREEMTKNQVSLTCLVKGFYPSDIAVEWESNGQPENNYKTTPPVLDSDGSFFLYSKLTVDKSRWQQGNVFSCSVMHEALHNHYTQKSLSLSPG
chain 2: EIVMTQSPATLSLTPGERATLSCRASQSVSSNYLSWFQQIPGQAPRLLIYGASTRATGIPARFSGSGSGTDFTLTISSLQPEDFAVYYCQQDYDLPWTFGQGTKVEIKGGGSGGGGEVQLVESGGGLVQPGGSLRLSCAASGFTFSSYTMSWVRQAPGKGLEWVAYISIGGGTTYYPDTVKGRFTISRDNAKNTLYLQMNSLKTEDTAVYYCARQGLPYYFDYWGQGTLVTVSSGGCGGGKVAACKEKVAALKEKVAALKEKVAALKE
notes: Tetravalent CD137 x PD-L1 Fc diabody; CD137 MAB-6(1.1) and hPD-L1 MAB-2(1.1); IgG1 (AA/YTE)

- EC50 (read off the curve) [6]: ~0.03 µg/mL
B2: TRIDENT-A5 (bispecific antibody, human IgG1, kappa, L234A L235A)
chain 1: EIVMTQSPATLSLSPGERATLSCRASQSVSSNYLSWYQQKPGQAPRLLIYGASTRATGIPARFSGSGSGTDFTLTISSLQPEDFAVYYCQQDYDLPWTFGQGTKVEIKGGGSGGGGQVQLQESGPGLVKPSETLSLTCTVSGGSISSYYWSWIRQPPGKGLEWIGRIYTSGSTNYNPSLKSRVTMSVDTSKNQFSLKLSSVTAADTAVYYCARDGWYDEDYNYYGMDVWGQGTTVTVSSGGCGGGEVAALEKEVAALEKEVAALEKEVAALEKGGGDKTHTCPPCPAPEAAGGPSVFLFPPKPKDTLYITREPEVTCVVVDVSHEDPEVKFNWYVDGVEVHNAKTKPREEQYNSTYRVVSVLTVLHQDWLNGKEYKCKVSNKALPAPIEKTISKAKGQPREPQVYTLPPSREEMTKNQVSLWCLVKGFYPSDIAVEWESNGQPENNYKTTPPVLDSDGSFFLYSKLTVDKSRWQQGNVFSCSVMHEALHNHYTQKSLSLSPGK
chain 2: EIVMTQSPATLSLSPGERATLSCRASQSVSSNYLSWYQQKPGQAPRLLIYGASTRATGIPARFSGSGSGTDFTLTISSLQPEDFAVYYCQQDYDLPWTFGQGTKVEIKGGGSGGGGQVQLQESGPGLVKPSETLSLTCTVSGGSISSYYWSWIRQPPGKGLEWIGRIYTSGSTNYNPSLKSRVTMSVDTSKNQFSLKLSSVTAADTAVYYCARDGWYDEDYNYYGMDVWGQGTTVTVSSGGCGGGKVAALKEKVAALKEKVAALKEKVAALKE
heavy: EVQLVESGGGLVQPGGSLRLSCAASGFTFSSYTMSWVRQAPGKGLEWVAYISIKGGTTYYPDTVKGRFTISRDNAKNSLYLQMNSLRAEDTAVYYCARQGLPYYGDYWGQGTLVTVSSASTKGPSVFPLAPSSKSTSGGTAALGCLVKDYFPEPVTVSWNSGALTSGVHTFPAVLQSSGLYSLSSVVTVPSSSLGTQTYICNVNHKPSNTKVDKRVEPKSCDKTHTCPPCPAPEAAGGPSVFLFPPKPKDTLYITREPEVTCVVVDVSHEDPEVKFNWYVDGVEVHNAKTKPREEQYNSTYRVVSVLTVLHQDWLNGKEYKCKVSNKALPAPIEKTISKAKGQPREPQVYTLPPSREEMTKNQVSLSCAVKGFYPSDIAVEWESNGQPENNYKTTPPVLDSDGSFFLVSKLTVDKSRWQQGNVFSCSVMHEALHNRYTQKSLSLSPGK
light: DIQMTQSPSSLSASVGDRVTITCKASQDVNEAVAWYQQKPGKAPKLLIYWASTRHTGVPSRFSGSGSGTDFTLTISSLQPEDFATYYCQQHYNTPLTFGQGTKVEIKRTVAAPSVFIFPPSDEQLKSGTASVVCLLNNFYPREAKVQWKVDNALQSGNSQESVTEQDSKDSTYSLSSTLTLSKADYEKHKVYACEVTHQGLSSPVTKSFNRGEC
notes: Trivalent; two CD137 MAB-6(1.2) sites, one hPD-L1 MAB-2(3.2) site

- EC50 (read off the curve) [7]: ~0.5 µg/mL
- EC50 (read off the curve) [6]: ~0.01 µg/mL
B3: TRIDENT-A6 (bispecific antibody, human IgG1, kappa, L234A L235A)
chain 1: B2 chain 1 with Y37F
chain 2: B2 chain 2 with Y37F
heavy: B2 heavy
light: B2 light
notes: Trivalent; two CD137 MAB-6(1.3) sites, one hPD-L1 MAB-2(3.2) site

- EC50 (read off the curve) [1]: ~0.04 µg/mL
- EC50 (read off the curve) [8]: ~0.07 µg/mL
- EC50 (read off the curve) [4]: ~0.03 µg/mL
- EC50 (read off the curve) [9]: ~0.005 µg/mL
B4: hPD-L1 MAB-2(1.1) (antibody, V domains shown)
VH: EVQLVESGGGLVQPGGSLRLSCAASGFTFSSYTMSWVRQAPGKGLEWVAYISIGGGTTYYPDTVKGRFTISRDNAKNTLYLQMNSLKTEDTAVYYCARQGLPYYFDYWGQGTLVTVSS
VL: DIQMTQSPSSLSASVGDRVTITCKASQDVNTAVAWYQQKPGKAPKLLIYWASTRHTGVPSRFSGSGSGTDFTLTISSLQPEDFATYYCQQHYNTPLTFGQGTKVEIK
notes: Humanized anti-PD-L1 antibody; also called hPD-1 MAB-2(1.1); hPD-1 MAB-2 VH1

- binding result [10]: binds
B5: hPD-1 MAB-2 VH1 + T77S, K83R and T84A (antibody, V domains shown)
VH: B4 VH with T78S, K87R, T88A
VL: B4 VL
notes: also called hPD-L1 MAB-2 VH2; hPD-L1 MAB-2(2.1)

- EC50 (read off the curve) [2]: ~0.2 µg/mL
- EC50 (read off the curve) [7]: ~0.2 µg/mL
- EC50 (read off the curve) [5]: ~0.01 µg/mL
B6: hPD-L1 MAB-2F (antibody) (antibody, V domains shown)
VH: B4 VH with G54K, F105G
VL: B4 VL with T31E

- binding result [10]: binds
B7: hPD-1 MAB-2 VH1 + T77S (antibody, V domains shown)
VH: B4 VH with T78S
VL: B4 VL
notes: Deimmunization variant of hPD-L1 MAB-2(1.1)

- binding result [10]: binds
B8: hPD-1 MAB-2 VH1 + K83R and T84A (antibody, V domains shown)
VH: B4 VH with K87R, T88A
VL: B4 VL
notes: as for B7
